B1: Compound 5.4: FGF21K122C mutant (SEQ NO: 8) modified by the albumin-binding agent of Example 2.1 (conjugate)
chain: HPIPDSSPLLQFGGQVRQRYLYTDDAQQTEAHLEIREDGTVGGAADQSPESLLQLKALKPGVIQILGVKTSRFLCQRPDGALYGSLHFDPEACSFRERLLEDGYNVYQSEAHGLPLHLPGNCSPHRDPAPRGPARFLPLPGLPPAPPEPPGILAPQPPDVGSSDPLSMVGGSQGRSPSYES
modifications: albumin-binding agent of Example 2.1
B2: Compound 5.5: FGF21H125C mutant (SEQ NO: 9) modified by the albumin-binding agent of Example 2.1 (conjugate)
chain: HPIPDSSPLLQFGGQVRQRYLYTDDAQQTEAHLEIREDGTVGGAADQSPESLLQLKALKPGVIQILGVKTSRFLCQRPDGALYGSLHFDPEACSFRERLLEDGYNVYQSEAHGLPLHLPGNKSPCRDPAPRGPARFLPLPGLPPAPPEPPGILAPQPPDVGSSDPLSMVGGSQGRSPSYES
modifications: albumin-binding agent of Example 2.1
B3: Compound 5.6: FGF21D38C mutant (SEQ NO: 6) modified by the albumin-binding agent of Example 2.2 (conjugate)
chain: HPIPDSSPLLQFGGQVRQRYLYTDDAQQTEAHLEIRECGTVGGAADQSPESLLQLKALKPGVIQILGVKTSRFLCQRPDGALYGSLHFDPEACSFRERLLEDGYNVYQSEAHGLPLHLPGNKSPHRDPAPRGPARFLPLPGLPPAPPEPPGILAPQPPDVGSSDPLSMVGGSQGRSPSYES
modifications: albumin-binding agent conjugated
B4: Compound 5.8: FGF21K122C mutant (SEQ NO: 8) modified by the albumin-binding agent of Example 2.2 (conjugate)
chain: HPIPDSSPLLQFGGQVRQRYLYTDDAQQTEAHLEIREDGTVGGAADQSPESLLQLKALKPGVIQILGVKTSRFLCQRPDGALYGSLHFDPEACSFRERLLEDGYNVYQSEAHGLPLHLPGNCSPHRDPAPRGPARFLPLPGLPPAPPEPPGILAPQPPDVGSSDPLSMVGGSQGRSPSYES
modifications: albumin-binding agent conjugated
B5: Compound 5.9: FGF21H125C mutant (SEQ NO: 9) modified by the albumin-binding agent of Example 2.2 (conjugate)
chain: HPIPDSSPLLQFGGQVRQRYLYTDDAQQTEAHLEIREDGTVGGAADQSPESLLQLKALKPGVIQILGVKTSRFLCQRPDGALYGSLHFDPEACSFRERLLEDGYNVYQSEAHGLPLHLPGNKSPCRDPAPRGPARFLPLPGLPPAPPEPPGILAPQPPDVGSSDPLSMVGGSQGRSPSYES
modifications: albumin-binding agent conjugated
B6: Compound 5.10: FGF21D46C mutant (SEQ NO: 7) modified by the albumin-binding agent of Example 2.3 (conjugate)
chain: HPIPDSSPLLQFGGQVRQRYLYTDDAQQTEAHLEIREDGTVGGAACQSPESLLQLKALKPGVIQILGVKTSRFLCQRPDGALYGSLHFDPEACSFRERLLEDGYNVYQSEAHGLPLHLPGNKSPHRDPAPRGPARFLPLPGLPPAPPEPPGILAPQPPDVGSSDPLSMVGGSQGRSPSYES
modifications: albumin-binding agent of Example 2.3
B7: Compound 5.11: FGF21K122C mutant (SEQ NO: 8) modified by the albumin-binding agent of Example 2.3 (conjugate)
chain: HPIPDSSPLLQFGGQVRQRYLYTDDAQQTEAHLEIREDGTVGGAADQSPESLLQLKALKPGVIQILGVKTSRFLCQRPDGALYGSLHFDPEACSFRERLLEDGYNVYQSEAHGLPLHLPGNCSPHRDPAPRGPARFLPLPGLPPAPPEPPGILAPQPPDVGSSDPLSMVGGSQGRSPSYES
modifications: albumin-binding agent of Example 2.3
B8: Compound 5.12: FGF21H125C mutant (SEQ NO: 9) modified by the albumin-binding agent of Example 2.3 (conjugate)
chain: HPIPDSSPLLQFGGQVRQRYLYTDDAQQTEAHLEIREDGTVGGAADQSPESLLQLKALKPGVIQILGVKTSRFLCQRPDGALYGSLHFDPEACSFRERLLEDGYNVYQSEAHGLPLHLPGNKSPCRDPAPRGPARFLPLPGLPPAPPEPPGILAPQPPDVGSSDPLSMVGGSQGRSPSYES
modifications: albumin-binding agent of Example 2.3
B9: Compound 5.13: FGF21D46C mutant (SEQ NO: 7) modified by the albumin-binding agent of Example 2.4 (conjugate)
chain: HPIPDSSPLLQFGGQVRQRYLYTDDAQQTEAHLEIREDGTVGGAACQSPESLLQLKALKPGVIQILGVKTSRFLCQRPDGALYGSLHFDPEACSFRERLLEDGYNVYQSEAHGLPLHLPGNKSPHRDPAPRGPARFLPLPGLPPAPPEPPGILAPQPPDVGSSDPLSMVGGSQGRSPSYES
modifications: albumin-binding agent of Example 2.4
B10: Compound 5.14: FGF21K122C mutant (SEQ NO: 8) modified by the albumin-binding agent of Example 2.4 (conjugate)
chain: HPIPDSSPLLQFGGQVRQRYLYTDDAQQTEAHLEIREDGTVGGAADQSPESLLQLKALKPGVIQILGVKTSRFLCQRPDGALYGSLHFDPEACSFRERLLEDGYNVYQSEAHGLPLHLPGNCSPHRDPAPRGPARFLPLPGLPPAPPEPPGILAPQPPDVGSSDPLSMVGGSQGRSPSYES
modifications: albumin-binding agent of Example 2.4
B11: Compound 5.1: FGF21E30C mutant (SEQ NO: 5) modified by the albumin-binding agent of Example 2.1 (conjugate)
chain: HPIPDSSPLLQFGGQVRQRYLYTDDAQQTCAHLEIREDGTVGGAADQSPESLLQLKALKPGVIQILGVKTSRFLCQRPDGALYGSLHFDPEACSFRERLLEDGYNVYQSEAHGLPLHLPGNKSPHRDPAPRGPARFLPLPGLPPAPPEPPGILAPQPPDVGSSDPLSMVGGSQGRSPSYES
modifications: albumin-binding agent of Example 2.1
B12: Compound 5.2: FGF21D38C mutant (SEQ NO: 6) modified by the albumin-binding agent of Example 2.1 (conjugate)
chain: HPIPDSSPLLQFGGQVRQRYLYTDDAQQTEAHLEIRECGTVGGAADQSPESLLQLKALKPGVIQILGVKTSRFLCQRPDGALYGSLHFDPEACSFRERLLEDGYNVYQSEAHGLPLHLPGNKSPHRDPAPRGPARFLPLPGLPPAPPEPPGILAPQPPDVGSSDPLSMVGGSQGRSPSYES
modifications: albumin-binding agent of Example 2.1

The molecules below were run against T1, FGFR1c and the cofactor β-Klotho (Homo sapiens, UniProt P11362+Q86Z14) (assay: dual-luciferase reporter gene assay in iLite FGF21 assay ready cells). Conditions: Example 6, four-parameter fitting.
T1 construct: host or cells: iLite FGF21 assay ready cells (genetically engineered reporter gene cell line)
T1 sequence (P11362 22-822): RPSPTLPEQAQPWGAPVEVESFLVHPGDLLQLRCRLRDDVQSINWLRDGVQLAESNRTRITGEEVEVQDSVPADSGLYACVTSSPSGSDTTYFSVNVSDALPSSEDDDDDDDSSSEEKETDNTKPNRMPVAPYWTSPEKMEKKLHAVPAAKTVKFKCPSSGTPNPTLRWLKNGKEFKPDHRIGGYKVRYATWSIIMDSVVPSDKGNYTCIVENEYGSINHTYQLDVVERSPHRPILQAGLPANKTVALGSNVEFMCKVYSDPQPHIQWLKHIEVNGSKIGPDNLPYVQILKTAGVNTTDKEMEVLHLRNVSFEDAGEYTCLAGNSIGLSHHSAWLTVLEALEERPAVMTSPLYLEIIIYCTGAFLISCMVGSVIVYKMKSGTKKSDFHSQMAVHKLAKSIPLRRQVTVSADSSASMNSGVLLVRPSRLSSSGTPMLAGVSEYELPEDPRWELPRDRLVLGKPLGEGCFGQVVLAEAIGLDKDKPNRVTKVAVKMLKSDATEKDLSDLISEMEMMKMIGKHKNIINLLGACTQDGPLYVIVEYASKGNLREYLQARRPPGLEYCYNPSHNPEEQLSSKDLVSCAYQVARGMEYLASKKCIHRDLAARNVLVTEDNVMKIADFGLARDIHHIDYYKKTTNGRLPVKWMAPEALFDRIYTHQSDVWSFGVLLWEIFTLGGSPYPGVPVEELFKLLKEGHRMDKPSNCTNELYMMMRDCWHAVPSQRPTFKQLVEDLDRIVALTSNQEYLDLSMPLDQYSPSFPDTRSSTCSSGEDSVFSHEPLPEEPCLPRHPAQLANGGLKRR
T1 sequence (Q86Z14 whole entry): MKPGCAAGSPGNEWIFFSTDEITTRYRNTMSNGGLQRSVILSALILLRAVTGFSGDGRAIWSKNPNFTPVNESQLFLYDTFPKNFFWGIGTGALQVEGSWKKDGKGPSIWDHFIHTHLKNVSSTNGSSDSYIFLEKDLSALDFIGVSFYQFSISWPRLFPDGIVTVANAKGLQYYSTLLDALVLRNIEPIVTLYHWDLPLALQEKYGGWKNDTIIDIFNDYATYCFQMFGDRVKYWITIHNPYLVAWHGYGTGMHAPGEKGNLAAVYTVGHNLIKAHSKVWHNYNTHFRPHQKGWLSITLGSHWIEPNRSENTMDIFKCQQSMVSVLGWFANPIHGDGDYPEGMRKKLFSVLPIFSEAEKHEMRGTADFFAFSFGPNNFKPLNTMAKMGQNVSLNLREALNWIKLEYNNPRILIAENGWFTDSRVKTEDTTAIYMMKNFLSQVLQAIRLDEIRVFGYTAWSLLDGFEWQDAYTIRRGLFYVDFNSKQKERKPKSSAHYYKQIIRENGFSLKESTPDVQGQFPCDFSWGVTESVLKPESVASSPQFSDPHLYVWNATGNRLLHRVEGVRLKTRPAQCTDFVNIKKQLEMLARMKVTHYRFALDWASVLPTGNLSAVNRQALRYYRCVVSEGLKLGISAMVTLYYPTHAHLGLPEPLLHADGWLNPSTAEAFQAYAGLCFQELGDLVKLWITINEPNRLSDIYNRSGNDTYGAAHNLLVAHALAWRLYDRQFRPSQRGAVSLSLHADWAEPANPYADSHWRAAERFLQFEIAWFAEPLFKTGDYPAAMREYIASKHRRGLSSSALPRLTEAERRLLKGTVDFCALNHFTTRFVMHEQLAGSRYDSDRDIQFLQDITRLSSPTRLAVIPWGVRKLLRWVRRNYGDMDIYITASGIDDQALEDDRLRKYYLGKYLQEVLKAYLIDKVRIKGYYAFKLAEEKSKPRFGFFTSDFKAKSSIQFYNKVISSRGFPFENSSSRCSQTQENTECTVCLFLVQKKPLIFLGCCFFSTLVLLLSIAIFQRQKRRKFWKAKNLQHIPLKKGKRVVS
Assay type: cell-based
Excerpt: iLite FGF21 assay ready cells (purchased from SAVR) is a genetically engineered reporter gene cell line that responds to signals downstream to FGF21 agonism through the expression of firefly luciferase. The receptor FGFR1c and the cofactor β-Klotho were co-overexpressed on the surface of iLite FGF21 assay ready cells and have undergone genetic optimization to enhance sensitivity, such that FGF21 will cause an increase in luciferase expression in a dose-response manner. The luciferase activity detection kit was purchased from Promega (catalog number #E2980).
iLite FGF21 assay ready cells were cultured adherently in basal medium (DMEM Gluta Max, purchased from Gibco) containing 10% fetal bovine serum (FBS, purchased from Gibco) and 1% penicillin/streptomycin (purchased from Gibco). For the activity determination experiment, […] cells per well and test samples such as FGF21 mutant proteins and FGF21 conjugate molecules modified with albumin-binding agent were added to all-white 96-well culture plates (purchased from Corning), and the chemiluminescence values were detected in a microplate reader according to the instructions of the luciferase activity detection kit. Finally, the half-maximal effective concentration (EC50) values of the tested samples were obtained by means of four-parameter fitting.
An EC50 of 0.99 nM was found for B1 in this work.
An EC50 of 0.52 nM was found for B2 in this work.
An EC50 of 2.06 nM was found for B3 in this work.
An EC50 of 1.13 nM was found for B4 in this work.
An EC50 of 1.18 nM was found for B5 in this work.
An EC50 of 2.69 nM was found for B6 in this work.
An EC50 of 2.09 nM was found for B7 in this work.
An EC50 of 1.4 nM was found for B8 in this work.
An EC50 of 1.84 nM was found for B9 in this work.
An EC50 of 1.02 nM was found for B10 in this work.
An EC50 of 4.61 nM was found for B11 in this work.
An EC50 of 1.99 nM was found for B12 in this work.

— patent publication EP4700044A1, “PROTEIN ANALOGUE AND USE THEREOF” (Shanghai Duomirui Biotechnology., Ltd., priority 2023, dated 2024)
